Sequences and labels used below:
B1: Clone S1+27 (SIP2) (other)
chain: KSSPLLIRMEESLNIVKYTAFLYNDQLIWSGLEQDDMRILYKYLTTSLFPRHIEPELAGRDSPIRAEMPGNLQHYGRFLTGPLNLNDPDAKCRFPKIFVNTDDTYEELHLIVYKAMSAAVCFMIDASVHPTLDFCRRLDSIVGPQLTVLASDICEQFNINKRMSGSEKEPQFKFIYFNHMNLAEKSTVHMRKTPSVSLTSVHPDLMKILGDINSDFTRVDEDEEIIVKAMSDYWVVGKKSDRRELYVILNQKNANLIEVNEVKKLCATQFNNIFFLD
notes: Novel clone from the human fetal brain library; also called Clone Smad1+ (S1+)27
B2: Smad4 (other, UniProt Q13485 1-552, looked up)
chain: MDNMSITNTPTSNDACLSIVHSLMCHRQGGESETFAKRAIESLVKKLKEKKDELDSLITAITTNGAHPSKCVTIQRTLDGRLQVAGRKGFPHVIYARLWRWPDLHKNELKHVKYCQYAFDLKCDSVCVNPYHYERVVSPGIDLSGLTLQSNAPSSMMVKDEYVHDFEGQPSLSTEGHSIQTIQHPPSNRASTETYSTPALLAPSESNATSTANFPNIPVASTSQPASILGGSHSEGLLQIASGPQPGQQQNGFTGQPATYHHNSTTTWTGSRTAPYTPNLPHHQNGHLQHHPPMPPHPGHYWPVHNELAFQPPISNHPAPEYWCSIAYFEMDVQVGETFKVPSSCPIVTVDGYVDPSGGDRFCLGQLSNVHRTEAIERARLHIGKGVQLECKGEGDVWVRCLSDHAVFVQSYYLDREAGRAPGDAVHKIYPSAYIKVFDLRQCHRQMQQQAATAQAAAAAQAAAVAGNIPGPGSVGGIAPAISLSAAAGIGVDDLRRLCILRMSFVKGWGPDYPRQSIKETPCWIEIHLHRALQLLDEVLHTMPIADPQPLD
notes: also called DPC4
B3: HEF1 M2/M (aa 695-759) (other, human, UniProt Q14511 695-759, looked up)
chain: TTNSGVSAQDRQLLCFYYDQCETHFISLLNAIDALFSCVSSAQPPRIFVAHSKFVILSAHKLVFI
notes: range 695-759
B4: Smad1 (other, UniProt Q15797 1-465, looked up)
chain: MNVTSLFSFTSPAVKRLLGWKQGDEEEKWAEKAVDALVKKLKKKKGAMEELEKALSCPGQPSNCVTIPRSLDGRLQVSHRKGLPHVIYCRVWRWPDLQSHHELKPLECCEFPFGSKQKEVCINPYHYKRVESPVLPPVLVPRHSEYNPQHSLLAQFRNLGQNEPHMPLNATFPDSFQQPNSHPFPHSPNSSYPNSPGSSSSTYPHSPTSSDPGSPFQMPADTPPPAYLPPEDPMTQDGSQPMDTNMMAPPLPSEINRGDVQAVAYEEPKHWCSIVYYELNNRVGEAFHASSTSVLVDGFTDPSNNKNRFCLGLLSNVNRNSTIENTRRHIGKGVHLYYVGGEVYAECLSDSSIFVQSRNCNYHHGFHPTTVCKIPSGCSLKIFNNQEFAQLLAQSVNHGFETVYELTKMCTIRMSFVKGWGAEYHRQDVTSTPCWIEIHLHGPLQWLDKVLTQMGSPHNPISSVS
notes: also called Smad1 itself
B5: Clone S1+12 (other)
chain: EFGTRRMMEGLDDGPDFLSEEDRGLKAINVDLQSDAALQVDISDALSERDKVKFTVHTKSSLPNFKQNEFSVVRQHEEFIWLHDSFVENEDYAGYIIPPAPPRPDFDASREKLQKLGEGEGSMTKEEFTKMKQELEAEYLAIFKKTVAMHEVFLCRVAAHPILRRDLNFHVFLEYNQDLSVRGKKKKKNSRSFGLLRQ
notes: also called sorting nexin-like protein
B6: HEF1 M2/C (aa 695-832) (other, human, UniProt Q14511 695-832, looked up)
chain: TTNSGVSAQDRQLLCFYYDQCETHFISLLNAIDALFSCVSSAQPPRIFVAHSKFVILSAHKLVFIGDTLTRQVTAQDIRNKVMNSSNQLCEQLKTIVMATKMAALHYPSTTALQEMVHQVTDLSRNAQLFKRSLLEMA
notes: range 695-832
B7: Smad3N (aa 1-144) (other, UniProt P84022 1-144, looked up)
chain: MSSILPFTPPIVKRLLGWKKGEQNGQEEKWCEKAVKSLVKKLKKTGQLDELEKAITTQNVNTKCITIPRSLDGRLQVSHRKGLPHVIYCRLWRWPDLHSHHELRAMELCEFAFNMKKDEVCVNPYHYQRVETPVLPPVLVPRHT
notes: range 1-144; also called N-terminal MH1 domain of Smad3
B8: HEF1 M2/N (aa 651-759) (other, human, UniProt Q14511 651-759, looked up)
chain: ENIMKQNKMQLEHHQLSQFQLLEQEITKPVENDISKWKPSQSLPTTNSGVSAQDRQLLCFYYDQCETHFISLLNAIDALFSCVSSAQPPRIFVAHSKFVILSAHKLVFI
notes: range 651-759
B9: LexA-Smad1 (full length Smad1 fused in frame to the LexA DNA binding domain (1-202) in pEG202) (other)
chain: MKALTARQQEVFDLIRDHISQTGMPPTRAEIAQRLGFRSPNAAEEHLKALARKGVIEIVSGASRGIRLLQEEEEGLPLVGRVAAGEPLLAQQHIEGHYQVDPSLFKPNADFLLRVSGMSMKDIGIMDGDLLAVHKTQDVRNGQVVVARIDDEVTVKRLKKQGNKVELLPENSEFKPIVVDLRQQSFTIEGLAVGVIRNGDWLMNVTSLFSFTSPAVKRLLGWKQGDEEEKWAEKAVDALVKKLKKKKGAMEELEKALSCPGQPSNCVTIPRSLDGRLQVSHRKGLPHVIYCRVWRWPDLQSHHELKPLECCEFPFGSKQKEVCINPYHYKRVESPVLPPVLVPRHSEYNPQHSLLAQFRNLGQNEPHMPLNATFPDSFQQPNSHPFPHSPNSSYPNSPGSSSSTYPHSPTSSDPGSPFQMPADTPPPAYLPPEDPMTQDGSQPMDTNMMAPPLPSEINRGDVQAVAYEEPKHWCSIVYYELNNRVGEAFHASSTSVLVDGFTDPSNNKNRFCLGLLSNVNRNSTIENTRRHIGKGVHLYYVGGEVYAECLSDSSIFVQSRNCNYHHGFHPTTVCKIPSGCSLKIFNNQEFAQLLAQSVNHGFETVYELTKMCTIRMSFVKGWGAEYHRQDVTSTPCWIEIHLHGPLQWLDKVLTQMGSPHNPISSVS
notes: also called Smad1pEG202; full length Smad1 bait
B10: Clone S1+28 (other)
chain: FAVDAKALPQNKPRPLTQEEIAQRRERARQRHAEKLAAAQGQAPLEPTQDGSAIETCPKGDEPRGDEQQVESMTPKPVLQEENNQESFIAFARVFSGVARRGKKIFVLGPKYSPLEFLRRVPLCFSAPPDGLPQVPHMAYCALENLYLLMGRELEYLEEVPPGNVLGIGGLQDFVLKSATLCSLPSCPPFIPLNFEATPIVRVAVEPKHPSEMPQLVKGMKLLNQADPCVQILIQETGEHVLVTAGEVHLQRCLDDLKERFAKIHISVSEPIIPFRETITKPPKVDMVNEEIGKQQKVAVIHQMKEDQSKIPEGIQVDSDGLITITTPNKLATLSVRAMPLPEEVTQILEENSDLIRSMEQLTSSLNEGENTHMIHQKTQEKIWEFKGKLEQHLTGRRWRNIVDQIWSFGPRKCGPNILVNKSEDFQNSVWTGPADKASKEASRYRDLGNSIVSGFQLATLSGPMCEEPLMGVCFVLEKWDLSKFEEQGASDLAKEDRRKMKPVLVEMKTKSYKMAALRPLRRGHHRKENLHSLTAMDLSQDS
notes: Novel clone from the human fetal brain library; also called human homologue of yeast translocation elongation factor

For data set [1], the target named is B9. In words: yeast two-hybrid; list of Smad1 interactors. The source says: (§1) From the pooled stock of the transformants, ten million cells are screened on U^-H^-W^-L^- galactose plates containing X-gal. Only those that form blue colonies are picked as candidate positives. […] Methods of sequencing employ such enzymes as the Klenow fragment of DNA polymerase I, Sequenase® (US Biochemical Corp, Cleveland, Ohio), Taq polymerase (Perkin Elmer, Norwalk, Conn.), thermostable T7 polymerase (Amersham, Chicago, Ill.), or combinations of recombinant polymerases and proofreading exonucleases such as the ELONGASE Amplification System (Gibco BRL, Gaithersburg, Md.). Preferably, the process is automated with machines such as the Hamilton Micro Lab 2200 (Hamilton, Reno Nev.), Peltier Thermal Cycler (PTC200; MJ Research, Watertown, Mass.) and the ABI 377 DNA sequencers (Perkin Elmer). […] The transformants are first streaked onto a master plate, then replicated onto two testing plates: U^-H^-W^- glucose plates with X-gal; U^-H^-W^- HW galactose/raffinose plates with X-gal.

Data set [2] has as its target T1, p105HEF1 (full length HEF1, 105 kD form) (human, UniProt Q14511 1-834, form derived from differential phosphorylation; sites not given).
T1 construct: Transfected into 293 cells; tag not described
T1 sequence (looked up): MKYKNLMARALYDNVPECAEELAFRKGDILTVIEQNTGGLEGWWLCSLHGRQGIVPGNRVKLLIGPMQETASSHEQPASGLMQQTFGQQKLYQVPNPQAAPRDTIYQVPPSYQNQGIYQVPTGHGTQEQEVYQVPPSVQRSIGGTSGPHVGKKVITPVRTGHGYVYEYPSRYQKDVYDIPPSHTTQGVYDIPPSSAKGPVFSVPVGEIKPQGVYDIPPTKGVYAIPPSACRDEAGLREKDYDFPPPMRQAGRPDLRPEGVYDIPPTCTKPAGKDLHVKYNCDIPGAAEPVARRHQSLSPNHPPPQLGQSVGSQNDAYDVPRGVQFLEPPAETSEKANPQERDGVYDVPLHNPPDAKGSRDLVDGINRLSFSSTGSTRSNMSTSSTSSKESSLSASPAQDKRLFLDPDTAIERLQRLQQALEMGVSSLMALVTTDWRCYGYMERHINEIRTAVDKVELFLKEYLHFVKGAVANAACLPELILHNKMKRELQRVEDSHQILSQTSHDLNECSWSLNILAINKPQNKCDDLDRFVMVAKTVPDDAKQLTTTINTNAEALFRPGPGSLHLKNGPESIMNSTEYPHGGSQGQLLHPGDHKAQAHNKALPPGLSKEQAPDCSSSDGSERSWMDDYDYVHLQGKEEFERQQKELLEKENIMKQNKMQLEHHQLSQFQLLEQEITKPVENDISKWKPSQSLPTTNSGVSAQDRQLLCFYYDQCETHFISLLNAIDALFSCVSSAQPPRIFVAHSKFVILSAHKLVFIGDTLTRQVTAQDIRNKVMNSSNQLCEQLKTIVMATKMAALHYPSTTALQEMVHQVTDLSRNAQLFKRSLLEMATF
In words: co-immunoprecipitation, transfected 293 cells.

Data set [3] has as its target T2, p115HEF1 (full length HEF1, 115 kD form) (human, UniProt Q14511 1-834, form derived from differential phosphorylation; sites not given).
T2 construct: Transfected into 293 cells; tag not described
T2 sequence (looked up): T1 sequence (looked up)
The data set can be described thus: co-immunoprecipitation, transfected 293 cells.

For data set [4], the target named is B9. The data set can be described thus: yeast two-hybrid (data not shown).
For the data set “Smad3N (aa 1-144)”, the target named is B7. The data set can be described thus: co-immunoprecipitation, transfected cells.
Data set [5] concerns the target B9. In words: yeast two-hybrid screen, LexA-Smad1 bait.
Source text: as §1

Another data set addresses T3, HsN3 (human, UniProt P28070 1-264, limits assumed).
T3 construct: also called β subunit of 20S proteasome; untagged HsN3 protein
In words: list of HsN3 interactors; method not detailed.

Data set [6] deals with T4, Uba 80 (ubiquitin fusion protein), clones S1+36 and S1+38 (human, UniProt P62979 1-156). The data set can be described thus: list of S1+12 interactors; method not detailed.
Data set [7] deals with the molecule itself. In words: list of S1+12 interactors; method not detailed.
The next data set has as its target T5, HEF1 M2 (aa 651-834) (human, UniProt Q14511 651-834).
T5 construct: range 651-834
T5 sequence (looked up): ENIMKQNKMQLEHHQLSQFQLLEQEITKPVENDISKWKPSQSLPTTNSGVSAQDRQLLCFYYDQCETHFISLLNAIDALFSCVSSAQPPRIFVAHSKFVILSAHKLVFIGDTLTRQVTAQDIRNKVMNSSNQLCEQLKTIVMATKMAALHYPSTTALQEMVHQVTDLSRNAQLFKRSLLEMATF
The data set can be described thus: co-immunoprecipitation, transfected cells.

Data set [8] deals with T4, Uba 80 (ubiquitin fusion protein), …. The data set can be described thus: yeast two-hybrid screen, LexA-Smad1 bait.
Source text: as §1

T3 sequence (P28070 whole entry): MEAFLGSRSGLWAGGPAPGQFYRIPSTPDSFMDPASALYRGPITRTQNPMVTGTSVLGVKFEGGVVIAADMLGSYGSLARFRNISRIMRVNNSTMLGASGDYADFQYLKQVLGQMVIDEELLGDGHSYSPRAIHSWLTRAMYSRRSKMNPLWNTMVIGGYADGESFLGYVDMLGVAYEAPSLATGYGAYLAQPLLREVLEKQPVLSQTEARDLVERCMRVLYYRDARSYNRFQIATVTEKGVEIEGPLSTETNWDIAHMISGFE

Consider B1, for which the binding result in data set [1] is reported as “binds”.

B2: the results for the binding result in data set [2], in data set [3] and in data set [4] were “no binding”, “no binding” and “binds”, respectively.

Take B3: the binding result with Smad3N (aa 1-144) was “no binding”.

As to B4, the binding result in data set [5] is “binds”.

B5: the binding result (in data set [1]; in the data set with HsN3; in data set [6]; in data set [7]) was “binds” each time.

B6: the binding result with Smad3N (aa 1-144) is on record as “no binding”.

For the molecule B7, in the data set with HEF1 M2 (aa 651-834), the binding result was “no binding”.

For B8, the binding result with Smad3N (aa 1-144) was “no binding”.

For B9, the binding result in data set [8] is “binds”.

Turning to B10, the binding result in data set [1] is listed as “binds”.
